According to patent publication US20240376151A1, “STAPLED PEPTIDES AND METHODS THEREOF” (FOG PHARMACEUTICALS, INC., priority 2022, published 2024):
Numbered stars: 1 amine (or outer) side, 2 acyl side, 3 side chain; on linkers, the order of the positions; unused ones are H or OH. Bridge positions count the residues as written; N and C are the ends. Ends that are not written are not given here. Phenylene(1,4-NHCOCH2)2 = O=C(C[*:1])Nc1ccc(NC(=O)C[*:2])cc1; 8‑residue Gly‑rich linker = not defined here

Legend:
[1] = biological target: T1, CUL1 N-terminal domain (residues 15-410, V367R/L371D) (human), Q13616; test: phage display screen, bead-bound target, spike-in-normalized NGS; target 30 nM
[2] = biological target: T1, CUL1 N-terminal domain (residues …); test: phage display screen, bead-bound target, spike-in-normalized NGS; target 100 nM
[3] = biological target: T1, CUL1 N-terminal domain (residues …); test: phage display screen, bead-bound target, spike-in-normalized NGS; target 1000 nM (second column)
[4] = biological target: T1, CUL1 N-terminal domain (residues …); test: phage display screen, bead-bound target, spike-in-normalized NGS; target 1000 nM
[5] = biological target: T1, CUL1 N-terminal domain (residues …); test: phage display screen, bead-bound target, spike-in-normalized NGS; target 300 nM
[6] = biological target: T1, CUL1 N-terminal domain (residues …); test: phage display screen, bead-bound target, spike-in-normalized NGS; target 10 nM
[7] = biological target: VHL-ELOBC (human), P40337; test: phage display screen, NGS; column head 300 nM (row is one cell short of the head, alignment unsure)
Chain of VHL-ELOBC (human), P40337 (P40337 54-213 limits assumed, chain 1 of 3): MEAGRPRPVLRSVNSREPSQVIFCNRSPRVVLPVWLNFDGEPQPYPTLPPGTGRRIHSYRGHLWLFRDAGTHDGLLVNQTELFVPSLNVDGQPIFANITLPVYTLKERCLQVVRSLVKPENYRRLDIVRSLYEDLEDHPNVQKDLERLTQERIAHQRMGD
Chain of VHL-ELOBC (human), P40337 (Q15370 1-104 limits assumed, chain 2 of 3, further chain): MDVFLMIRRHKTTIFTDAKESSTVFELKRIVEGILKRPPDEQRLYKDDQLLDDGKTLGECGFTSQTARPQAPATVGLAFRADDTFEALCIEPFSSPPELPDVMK
Chain of VHL-ELOBC (human), P40337 (Q15369 17-112 limits assumed, chain 3 of 3, further chain): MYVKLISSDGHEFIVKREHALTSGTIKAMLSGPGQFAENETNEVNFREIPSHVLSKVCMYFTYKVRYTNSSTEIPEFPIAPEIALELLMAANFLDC

[8] = biological target: human PD-L1 (residues 18-239) with C-terminal human IgG Fc-Avi tag (human), Q9NZQ7; test: SPR
Chain of human PD-L1 (residues 18-239) with C-terminal human IgG Fc-Avi tag (human), Q9NZQ7 (Q9NZQ7 18-239): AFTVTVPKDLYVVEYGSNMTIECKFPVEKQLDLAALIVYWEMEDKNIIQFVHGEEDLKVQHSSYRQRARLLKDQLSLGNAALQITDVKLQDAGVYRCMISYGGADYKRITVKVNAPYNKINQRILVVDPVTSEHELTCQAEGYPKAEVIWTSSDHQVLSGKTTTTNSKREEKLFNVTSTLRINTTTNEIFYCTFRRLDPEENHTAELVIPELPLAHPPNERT

[9] = biological target: RNF31 PUB domain protein (residues 1-179), biotinylated (Homo sapiens (Human)) (UniProt Q96EP0); test: phage display screen on bead-immobilized RNF31 PUB, NGS
Chain of RNF31 PUB domain protein (residues 1-179), biotinylated (Homo sapiens (Human)) (Q96EP0 1-179): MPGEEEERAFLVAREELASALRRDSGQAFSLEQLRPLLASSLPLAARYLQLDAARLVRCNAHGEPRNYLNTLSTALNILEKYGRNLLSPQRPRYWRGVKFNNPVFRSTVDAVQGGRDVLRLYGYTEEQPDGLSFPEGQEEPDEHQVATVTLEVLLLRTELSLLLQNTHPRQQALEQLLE

[10] = biological target: MDM2 p53-binding domain + beta-catenin Armadillo domain (the two proteins bridged in the ternary complex) (human) (UniProt Q00987); test: direct FP, ternary complex of β-catenin (Armadillo domain) and MDM2 (p53-binding domain)
Chain of MDM2 p53-binding domain + beta-catenin Armadillo domain (the two proteins bridged in the ternary complex) (human) (Q00987 17-111, chain 1 of 2): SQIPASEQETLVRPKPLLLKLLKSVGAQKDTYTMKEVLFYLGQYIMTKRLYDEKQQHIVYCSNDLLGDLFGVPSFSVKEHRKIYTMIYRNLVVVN
Chain of MDM2 p53-binding domain + beta-catenin Armadillo domain (the two proteins bridged in the ternary complex) (human) (chain, as listed by the source, chain 2 of 2): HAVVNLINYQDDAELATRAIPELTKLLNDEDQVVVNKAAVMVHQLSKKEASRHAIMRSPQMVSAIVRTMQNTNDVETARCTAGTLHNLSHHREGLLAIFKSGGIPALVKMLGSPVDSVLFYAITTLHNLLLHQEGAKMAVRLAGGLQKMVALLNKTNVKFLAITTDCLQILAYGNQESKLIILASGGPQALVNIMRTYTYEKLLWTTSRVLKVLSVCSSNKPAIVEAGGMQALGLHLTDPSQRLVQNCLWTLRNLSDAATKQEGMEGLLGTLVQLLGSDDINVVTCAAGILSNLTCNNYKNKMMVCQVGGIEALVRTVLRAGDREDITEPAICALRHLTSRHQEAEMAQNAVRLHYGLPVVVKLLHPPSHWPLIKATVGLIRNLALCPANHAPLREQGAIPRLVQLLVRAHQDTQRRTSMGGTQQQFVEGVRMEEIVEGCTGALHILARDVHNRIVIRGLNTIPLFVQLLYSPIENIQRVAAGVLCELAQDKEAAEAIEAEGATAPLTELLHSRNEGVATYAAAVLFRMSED

B1: phage-displayed Helicon … (peptide)
peptide: DPAVMECDWAATICDIF
modifications: not checked
[1]
  normalized phage count (normalized counts): 2
[2]
  normalized phage count (normalized counts): 154
[3]
  normalized phage count (normalized counts): 419
[4]
  normalized phage count (normalized counts): 477
[5]
  normalized phage count (normalized counts): 402
[6]
  normalized phage count (normalized counts): 0

B2: … (peptide)
peptide: DPAWYACVDAAYFCDYQ
modifications: not checked
[7]
  phage count (normalised phage counts): 35

B3: FP30790 (peptide)
peptide: DPAAADCQWAAFLCRVY
modifications: not checked
[8]
  Kd: 10 µM

B4: … (peptide)
peptide: DPAWWHCVDAALQCDYY
modifications: not checked
[7]
  phage count (normalised phage counts): 40

B5: … (Cluster C49 phage-displayed stapled peptide) (peptide, not shown: large carriers)
peptide: DPAHILCEMAARNCLYN-{8‑residue Gly‑rich linker-M13 pIII}
modifications: linker 7-14 via Phenylene(1,4-NHCOCH2)2 (inferred); reading uncertain
[9]
  normalized phage count at Target Concentration 10 (normalized phage counts): 3
  normalized phage count at Target Concentration 30 (normalized phage counts): 1
  normalized phage count at Target Concentration 100 (normalized phage counts): 1
  normalized phage count at Target Concentration 300 (normalized phage counts): 1
  normalized phage count at Target Concentration 1000 (normalized phage counts): 10
  normalized phage count at Target Concentration 1000 (second column) (normalized phage counts): 2

B6: H329 (peptide)
peptide: Ac-PMEQQAICFQAAWMCLADDWT-NH2
modifications: bridge 8-15; not fully specified (bridges); printed as Ac-PMEQQAICFQAAWMCLADDWT-NH2
[10]
  EC50: 0.014 µM

B7: … (peptide)
peptide: DPAWWHCVAAATQCDQR
modifications: not checked
[7]
  phage count (normalised phage counts): 79

B8: … (Cluster C49 phage-displayed stapled peptide) (peptide, not shown: large carriers)
peptide: DPADWTCVLAAHNCLYT-{8‑residue Gly‑rich linker-M13 pIII}
modifications: linker 7-14 via Phenylene(1,4-NHCOCH2)2 (inferred); reading uncertain
[9]
  normalized phage count at Target Concentration 10 (normalized phage counts): 0
  normalized phage count at Target Concentration 30 (normalized phage counts): 0
  normalized phage count at Target Concentration 100 (normalized phage counts): 0
  normalized phage count at Target Concentration 300 (normalized phage counts): 1
  normalized phage count at Target Concentration 1000 (normalized phage counts): 3
  normalized phage count at Target Concentration 1000 (second column) (normalized phage counts): 9
